US20220040304A1, “A COMPOSITION FOR CANCER CELL DEATH AND ITS USE” (Industry-University Cooperation Foundation Hanyang …, priority 2018, published 2022)
“Also recorded” adds a separate entry of the source.

Columns and labels:
MCF-7 cells = assay: Cell death according to incubation time per light irradiation time (SYTOX Green/DAPI); type: cell-based, human; conditions: MCF-7, protein 10 μM
Experimental: MCF-7 cells were seeded at 5×10^5 cells/mL in a 96-well plate (SPL Cell Culture Plate, 96 well (SPL, Cat #30096)), and cultured at 37° C. for 24 hours (overnight). After the culture for 24 hours, the cells were washed with FBS & Phenol red-free media (RPMI, Well Gene., Korea, Cat #LM011-02), and 100 μL of an FBS-free medium containing the purified protein (final concentration: 10 μM) was added, followed by reaction at 37° C. for 24 hours.
After the reaction for 24 hours, the cells were washed with FBS & Phenol red-free media (RPMI), and then 100 μL of FBS & Phenol red-free media (RPMI) was added again. After light irradiation at 10 mW/cm^2 over time, the cells were incubated at 37° C.
After incubation, 50 μL of SYTOX Green (final concentration: 261 nM) staining DNA of dead cells and 10 μL of DAPI (Vector Laboratories Inc., USA) staining DNA of live cells were added, followed by reaction for 5 minutes. Cell death was confirmed by detecting KillerRed, SYTOX Green and DAPI fluorescence according to the light irradiation time for cells using a confocal microscope.

MDA-MB-435 = assay: Cell death after light irradiation by cell type (SYTOX Green/DAPI); type: cell-based, human; conditions: MDA-MB-435, protein 10 μM, light 10 mW/cm^2 for 10 minutes
Experimental: MDA-MB-435: (Origin: breast, mammary gland, Species: human—person, Media: DMEM with glucose (4.5 g/L), L-glutamine and sodium pyruvate, 90%; heat inactivated fetal bovine serum (FBS), 10%), purchased from ATCC (USA).
(§1) The cells were seeded at 5×10^5 cells/mL in 96-well plates (SPL Cell Culture Plate, 96 well (SPL, Cat #30096)), and cultured at 37° C. for 24 hours (overnight). After the culture for 24 hours, the cells were washed with FBS & phenol red-free media, and 100 μL of FBS & phenol red-free media containing a purified protein (final concentration: 10 μM) was added, followed by reaction at 37° C. for 24 hours. After the reaction for 24 hours, the cells were washed with FBS & phenol red-free media, and 100 μL of FBS & phenol red-free media was added.
(§2) After irradiation with light at 10 mW/cm^2 for 10 minutes, 50 μL (final concentration: 261 nM) of SYTOX Green staining DNA of dead cells was added, followed by reaction at 37° C. for 30 minutes. 10 μL of DAPI staining DNA of live cells was added, followed by reaction for 5 minutes. Cell death was confirmed by observing KillerRed, SYTOX Green and DAPI fluorescence using a confocal microscope.

MDA-MB-231 = assay: as above; type: cell-based, human; conditions: MDA-MB-231, protein 10 μM, light 10 mW/cm^2 for 10 minutes
Experimental: MDA-MB-231: (Origin: breast, mammary gland, Species: human—person, Growth pattern: monolayer, Media: DMEM with glucose (4.5 g/L), L-glutamine and sodium pyruvate, 90%; heat inactivated fetal bovine serum (FBS), 10%), purchased from Korean Cell Line Bank (KCLB).
as §1, §2

[1] = system: patient breast cancer cell lines (primary cells, triple negative); assay: Cytotoxic effect in patient primary breast cancer cells (triple negative); type: cell-based; conditions: protein 10 μM
Experimental: Cells were seeded at 5×10^5 cells/mL in 96-well plates (SPL Cell Culture Plate, 96 well (SPL, Cat #30096)), and cultured at 37° C. for 24 hours. After the culture for 24 hours, the cells were washed with primary cell media, and 100 μL of primary cell media containing a purified protein (final concentration: 10 μM) was added, followed by reaction at 37° C. for 12 hours.
After the reaction for 24 hours, the cells were washed with primary cell media, and 100 μL of primary cell media was added. After treatment with a Co-h substrate solution (final concentration: 150 μM) for 5 minutes or irradiation with light at 10 mW/cm^2 for 5 minutes, 50 μL of SYTOX Green (final concentration: 261 nM) staining DNA of dead cells was added, followed by reaction at 37° C. for 30 minutes.
10 μL of DAPI staining DNA of live cells was added, followed by reaction for 5 minutes. Cell death was confirmed by fluorescence imaging of SYTOX Green and DAPI fluorescence according to the type of protein treating cells and the light irradiation time using a confocal microscope. Data on patient breast cancer cell lines used in this example are as follows (Table 5).

MDA-MB-231 cancer cells = assay: IVIS in vivo imaging and tumor size in mice with MDA-MB-231 tumors; set-up: species or system mouse; conditions: NOD-SCID mice, MDA-MB-231 tumor, protein injected into tumor (50 μM), Co-h 5 μg/50 μL subcutaneously
Experimental: MDA-MB-231 cancer cells (ATCC) were cultured in RPMI (Corning Inc.) containing 5% FBS (Corning Inc.) and 1% penicillin and streptomycin. Mice used in this experiment were 7-week-old NOD-SCID species, and purchased from Central Lab Animal Inc., and then the mice were raised without diet restriction for 2 weeks for acclimation at this research institute. The weight of a female mouse ranged from 17 to 23 g.
This animal experiment was conducted after approval by the Institute of Animal Care and Use Committee (IACUC) of the Asan Medical Center in compliance with the guidelines. 1×10^6 cells/50 μL of MDA-MB-231 cells diluted in RPMI and 50 μL of Matrigel (Corning Inc.) were subcutaneously injected into the adipose body of a NOD-SCID mouse. On day 9 after cell injection, a protein containing 20 μL of Matrigel (RLuc8.6-KR-LP, final concentration: 50 μM) was injected into a tumor when the tumor size of the mouse was approximately 40 mm^2. After respiratory anesthesia of the mouse, fluorescence emitted from the protein was imaged using an IVIS spectrum (Xenogen Inc.). For BL-PDT, Co-h (5 μg/50 μL, Nanolight Technology.) was diluted in 1×PBS (Corning) and then subcutaneously injected. The light emission from Co-h was imaged after the IVIS spectrum was set to 5 seconds.

B1: RLuc8.6-KR-LP: fusion protein of RLuc8.6, KillerRed and lead peptide WLEAAYQRFL, 71 kDa (protein)
chain: MRGSHHHHHHGMASMTGGQQMGRDLYDDDDKDPMASKVYDPEQRKRMITGPQWWARCKQMNVLDSFINYYDSEKHAENAVIFLHGNATSSYLWRHVVPHIEPVARCIIPDLIGMGKSGKSGNGSYRLLDHYKYLTAWFELLNLPKKIIFVGHDWGSALAFHYAYEHQDRIKAIVHMESVVDVIESWMGWPDIEEELALIKSEEGEKMVLENNFFVETLLPSKIMRKLEPEEFAAYLEPFKEKGEVRRPTLSWPREIPLVKGGKPDVVQIVRNYNAYLRASDDLPKLFIESDPGFFYNAIVEGAKKFPNTEFVKVKGLHFLQEDAPDEMGKYIKSFVERVLKNEQEFGGGMLCCMRRTKQVEKNDEDQKISEGGPALFQSDMTFKIFIDGEVNGQKFTIVADGSSKFPHGDFNVHAVCETGKLPMSWKPICHLIQYGEPFFARYPDGISHFAQECFPEGLSIDRTVRFENDGTMTSHHTYELDDTCVVSRITVNCDGFQPDGPIMRDQLVDILPNETHMFPHGPNAVRQLAFIGFTTADGGLMMGHFDSKMTFNGSRAIEIPGPHFVTIITKQMRDTSDKRDHVCQREVAYAHSVPRITSAIGSDEDGGGWLEAAYQRFL
modifications: pRSET-RLuc8.6-KillerRed-Lead peptide
cell incubation time after which the number of cells stained with SYTOX Green increased (MCF-7 cells; light 10 mW/cm^2 for 1 minute): over 1 hour | cell incubation time from which the number of cells stained with SYTOX Green increased (MCF-7 cells; light 10 mW/cm^2 for 5 minutes or 10 minutes): approximately 30 minutes | cell death after light irradiation (MDA-MB-435): killing the three types of cancer cell lines | cell death after light irradiation (MDA-MB-231): killing the three types of cancer cell lines | death of Co-h substrate-added cells compared with light irradiation ([1]; Co-h 150 μM for 5 minutes): more effectively shown | cytotoxic effect in patient breast cancer cell lines ([1]; Co-h 150 μM for 5 minutes or light 10 mW/cm^2 for 5 minutes): a cytotoxic effect was exhibited | tumor size (MDA-MB-231 cancer cells): the smallest; also recorded: tumor growth is inhibited
